In patent US20150203577A1 (Chugai, published 2015):

T1: mouse FcγRII (mouse, UniProt P08101 30-210)
T1 construct: Extracellular domain with C-terminal His tag; also called mFcγRII; mFcgRII
T1 sequence: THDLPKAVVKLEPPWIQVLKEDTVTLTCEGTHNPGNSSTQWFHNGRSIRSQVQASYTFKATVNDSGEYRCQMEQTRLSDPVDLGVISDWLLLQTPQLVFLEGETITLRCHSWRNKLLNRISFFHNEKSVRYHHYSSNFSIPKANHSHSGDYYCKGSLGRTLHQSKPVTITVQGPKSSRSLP

T2: mouse FcγRIII (mouse, UniProt P08508 31-215)
T2 construct: Extracellular domain with C-terminal His tag; also called mFcγRIII; mFcgRIII
T2 chain: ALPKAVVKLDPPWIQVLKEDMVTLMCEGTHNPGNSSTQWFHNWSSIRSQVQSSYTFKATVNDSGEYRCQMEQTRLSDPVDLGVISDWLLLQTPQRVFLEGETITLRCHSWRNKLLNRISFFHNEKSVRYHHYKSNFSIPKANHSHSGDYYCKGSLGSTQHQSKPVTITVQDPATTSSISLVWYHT


Tests used:
[1] = target: T1, mouse FcγRII; test: SPR (Biacore T200); KD of H237-MB630/MRAL-k0 / KD of variant
[2] = target: T2, mouse FcγRIII; test: as above
[3] = target: T1, mouse FcγRII; test: SPR (Biacore T200); KD of H237-mIgG1/MRAL-k0 / KD of variant
[4] = target: T2, mouse FcγRIII; test: as above

Binder | Relative mFcγRII-binding activity (MB630 = 1) [1] [fold] | Relative mFcγRIII-binding activity (MB630 = 1) [2] [fold] | relative mFcγRII-binding activity (mIgG1 = 1) [3] [fold] | relative mFcγRIII-binding activity (mIgG1 = 1) [4] [fold]
MB769 (antibody, mouse IgG1, kappa, CH name; VH H237 + CH, L chain MRAL-k0; copies: 2 + 2) heavy: QVQLQESGPGLVKPSETLSLTCAVSGHSISHDHAWSWVRQPPGEGLEWIGFISYSGITNYNPSLQGRVTISRDNSKNTLYLQMNSLRAEDTAVYYCARSLARTTAMDYWGEGTLVTVSSAKTTPPSVYPLAPGSAAQTNSMVTLGCLVKGYFPEPVTVTWNSGSLSSGVHTFPAVLQSDLYTLSSSVTVPSSTWPSETVTCNVAHPASSTKVDKKIVPRDCGCKPCICEPNEVELVFIFPPKPKDVLTITLTPKVTCVVVDISKDDPEVQFSWFVDDVEVHTAQTQPREEQFNSTFRSVSELPIMHQDWLNGKEFKCRVNSAAFPADIEKTISKTKGRPKAPQVYTIPPPKEQMAKDKVSLTCMITDFFPEDITVEWQWNGQPAENYKNTQPIMDTDGSYFVYSKLNVQKSNWEAGNTFTCSVLHEGLHNHHTEKSLSHSPGK light: not shown | 0.31 | 0.38 | 3.3 | 0.06
MB773 (antibody, mouse IgG1, kappa, CH name; VH H237 + CH, L chain MRAL-k0; copies: 2 + 2) heavy: QVQLQESGPGLVKPSETLSLTCAVSGHSISHDHAWSWVRQPPGEGLEWIGFISYSGITNYNPSLQGRVTISRDNSKNTLYLQMNSLRAEDTAVYYCARSLARTTAMDYWGEGTLVTVSSAKTTPPSVYPLAPGSAAQTNSMVTLGCLVKGYFPEPVTVTWNSGSLSSGVHTFPAVLQSDLYTLSSSVTVPSSTWPSETVTCNVAHPASSTKVDKKIVPRDCGCKPCICEPNEVELVFIFPPKPKDVLTITLTPKVTCVVVDISKDDPEVQFSWFVDDVEVHTAQTQPREEQFNSTFRSVSELPIMHQDWLNGKEFKCRVNSAAFPAPIYKTISKTKGRPKAPQVYTIPPPKEQMAKDKVSLTCMITDFFPEDITVEWQWNGQPAENYKNTQPIMDTDGSYFVYSKLNVQKSNWEAGNTFTCSVLHEGLHNHHTEKSLSHSPGK light: not shown | 1.17 | 1.25 | 12.7 | 0.22
MB772 (antibody, mouse IgG1, kappa, CH name; VH H237 + CH, L chain MRAL-k0; copies: 2 + 2) heavy: QVQLQESGPGLVKPSETLSLTCAVSGHSISHDHAWSWVRQPPGEGLEWIGFISYSGITNYNPSLQGRVTISRDNSKNTLYLQMNSLRAEDTAVYYCARSLARTTAMDYWGEGTLVTVSSAKTTPPSVYPLAPGSAAQTNSMVTLGCLVKGYFPEPVTVTWNSGSLSSGVHTFPAVLQSDLYTLSSSVTVPSSTWPSETVTCNVAHPASSTKVDKKIVPRDCGCKPCICEPNEVELVFIFPPKPKDVLTITLTPKVTCVVVDISKDDPEVQFSWFVDDVEVHTAQTQPREEQFNSTFRSVSELPIMHQDWLNGKEFKCRVNSAAFPAPINKTISKTKGRPKAPQVYTIPPPKEQMAKDKVSLTCMITDFFPEDITVEWQWNGQPAENYKNTQPIMDTDGSYFVYSKLNVQKSNWEAGNTFTCSVLHEGLHNHHTEKSLSHSPGK light: not shown | 0.32 | 0.42 | 3.5 | 0.07
MB770 (antibody, mouse IgG1, kappa, CH name; VH H237 + CH, L chain MRAL-k0; copies: 2 + 2) heavy: QVQLQESGPGLVKPSETLSLTCAVSGHSISHDHAWSWVRQPPGEGLEWIGFISYSGITNYNPSLQGRVTISRDNSKNTLYLQMNSLRAEDTAVYYCARSLARTTAMDYWGEGTLVTVSSAKTTPPSVYPLAPGSAAQTNSMVTLGCLVKGYFPEPVTVTWNSGSLSSGVHTFPAVLQSDLYTLSSSVTVPSSTWPSETVTCNVAHPASSTKVDKKIVPRDCGCKPCICEPNEVELVFIFPPKPKDVLTITLTPKVTCVVVDISKDDPEVQFSWFVDDVEVHTAQTQPREEQFNSTFRSVSELPIMHQDWLNGKEFKCRVNSAAFPAFIEKTISKTKGRPKAPQVYTIPPPKEQMAKDKVSLTCMITDFFPEDITVEWQWNGQPAENYKNTQPIMDTDGSYFVYSKLNVQKSNWEAGNTFTCSVLHEGLHNHHTEKSLSHSPGK light: not shown | 1.23 | 1.4 | 13.3 | 0.24
MB771 (antibody, mouse IgG1, kappa, CH name; VH H237 + CH, L chain MRAL-k0; copies: 2 + 2) heavy: QVQLQESGPGLVKPSETLSLTCAVSGHSISHDHAWSWVRQPPGEGLEWIGFISYSGITNYNPSLQGRVTISRDNSKNTLYLQMNSLRAEDTAVYYCARSLARTTAMDYWGEGTLVTVSSAKTTPPSVYPLAPGSAAQTNSMVTLGCLVKGYFPEPVTVTWNSGSLSSGVHTFPAVLQSDLYTLSSSVTVPSSTWPSETVTCNVAHPASSTKVDKKIVPRDCGCKPCICEPNEVELVFIFPPKPKDVLTITLTPKVTCVVVDISKDDPEVQFSWFVDDVEVHTAQTQPREEQFNSTFRSVSELPIMHQDWLNGKEFKCRVNSAAFPAYIEKTISKTKGRPKAPQVYTIPPPKEQMAKDKVSLTCMITDFFPEDITVEWQWNGQPAENYKNTQPIMDTDGSYFVYSKLNVQKSNWEAGNTFTCSVLHEGLHNHHTEKSLSHSPGK light: not shown | 1.27 | 1.53 | 13.8 | 0.26

Now from value to binder:

Relative mFcγRII-binding activity (MB630 = 1) [1] [fold] | Relative mFcγRIII-binding activity (MB630 = 1) [2] [fold] | relative mFcγRII-binding activity (mIgG1 = 1) [3] [fold] | relative mFcγRIII-binding activity (mIgG1 = 1) [4] [fold] | Binder
0.74 | 0.72 | 9.7 | 0.17 | MB777 (antibody, mouse IgG1, kappa, CH name; VH H237 + CH, L chain MRAL-k0; copies: 2 + 2) heavy: QVQLQESGPGLVKPSETLSLTCAVSGHSISHDHAWSWVRQPPGEGLEWIGFISYSGITNYNPSLQGRVTISRDNSKNTLYLQMNSLRAEDTAVYYCARSLARTTAMDYWGEGTLVTVSSAKTTPPSVYPLAPGSAAQTNSMVTLGCLVKGYFPEPVTVTWNSGSLSSGVHTFPAVLQSDLYTLSSSVTVPSSTWPSETVTCNVAHPASSTKVDKKIVPRDCGCKPCICEPNEVELVFIFPPKPKDVLTITLTPKVTCVVVDISKDDPEVQFSWFVDDVEVHTAQTQPREEQFNSTFRSVSELPIMHQDWLNGKEFKCRVNSAAFPAPIEKTIIKTKGRPKAPQVYTIPPPKEQMAKDKVSLTCMITDFFPEDITVEWQWNGQPAENYKNTQPIMDTDGSYFVYSKLNVQKSNWEAGNTFTCSVLHEGLHNHHTEKSLSHSPGK light: not shown
0.87 | 1.05 | 9.4 | 0.18 | MB774 (antibody, mouse IgG1, kappa, CH name; VH H237 + CH, L chain MRAL-k0; copies: 2 + 2) heavy: QVQLQESGPGLVKPSETLSLTCAVSGHSISHDHAWSWVRQPPGEGLEWIGFISYSGITNYNPSLQGRVTISRDNSKNTLYLQMNSLRAEDTAVYYCARSLARTTAMDYWGEGTLVTVSSAKTTPPSVYPLAPGSAAQTNSMVTLGCLVKGYFPEPVTVTWNSGSLSSGVHTFPAVLQSDLYTLSSSVTVPSSTWPSETVTCNVAHPASSTKVDKKIVPRDCGCKPCICEPNEVELVFIFPPKPKDVLTITLTPKVTCVVVDISKDDPEVQFSWFVDDVEVHTAQTQPREEQFNSTFRSVSELPIMHQDWLNGKEFKCRVNSAAFPAPIVKTISKTKGRPKAPQVYTIPPPKEQMAKDKVSLTCMITDFFPEDITVEWQWNGQPAENYKNTQPIMDTDGSYFVYSKLNVQKSNWEAGNTFTCSVLHEGLHNHHTEKSLSHSPGK light: not shown
1.04 | 1.15 | 11.3 | 0.2 | MB776 (antibody, mouse IgG1, kappa, CH name; VH H237 + CH, L chain MRAL-k0; copies: 2 + 2) heavy: QVQLQESGPGLVKPSETLSLTCAVSGHSISHDHAWSWVRQPPGEGLEWIGFISYSGITNYNPSLQGRVTISRDNSKNTLYLQMNSLRAEDTAVYYCARSLARTTAMDYWGEGTLVTVSSAKTTPPSVYPLAPGSAAQTNSMVTLGCLVKGYFPEPVTVTWNSGSLSSGVHTFPAVLQSDLYTLSSSVTVPSSTWPSETVTCNVAHPASSTKVDKKIVPRDCGCKPCICEPNEVELVFIFPPKPKDVLTITLTPKVTCVVVDISKDDPEVQFSWFVDDVEVHTAQTQPREEQFNSTFRSVSELPIMHQDWLNGKEFKCRVNSAAFPAPIEKYISKTKGRPKAPQVYTIPPPKEQMAKDKVSLTCMITDFFPEDITVEWQWNGQPAENYKNTQPIMDTDGSYFVYSKLNVQKSNWEAGNTFTCSVLHEGLHNHHTEKSLSHSPGK light: not shown
0.84 | 1.02 | 9.1 | 0.18 | MB775 (antibody, mouse IgG1, kappa, CH name; VH H237 + CH, L chain MRAL-k0; copies: 2 + 2) heavy: QVQLQESGPGLVKPSETLSLTCAVSGHSISHDHAWSWVRQPPGEGLEWIGFISYSGITNYNPSLQGRVTISRDNSKNTLYLQMNSLRAEDTAVYYCARSLARTTAMDYWGEGTLVTVSSAKTTPPSVYPLAPGSAAQTNSMVTLGCLVKGYFPEPVTVTWNSGSLSSGVHTFPAVLQSDLYTLSSSVTVPSSTWPSETVTCNVAHPASSTKVDKKIVPRDCGCKPCICEPNEVELVFIFPPKPKDVLTITLTPKVTCVVVDISKDDPEVQFSWFVDDVEVHTAQTQPREEQFNSTFRSVSELPIMHQDWLNGKEFKCRVNSAAFPAPIEKNISKTKGRPKAPQVYTIPPPKEQMAKDKVSLTCMITDFFPEDITVEWQWNGQPAENYKNTQPIMDTDGSYFVYSKLNVQKSNWEAGNTFTCSVLHEGLHNHHTEKSLSHSPGK light: not shown
